The target in experiment [1] is T1, human FcγRIIa(H) (human, UniProt P12318 36-217).
T1 construct: also called FcgRIIaH; hFcgRIIa(H)
T1 sequence: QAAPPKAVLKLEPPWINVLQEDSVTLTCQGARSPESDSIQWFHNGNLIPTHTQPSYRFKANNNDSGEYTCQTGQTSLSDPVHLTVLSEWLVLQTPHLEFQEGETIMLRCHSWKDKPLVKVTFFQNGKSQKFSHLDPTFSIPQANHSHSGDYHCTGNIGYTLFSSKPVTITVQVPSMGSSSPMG
Briefly: SPR, antibody captured by Protein A, FcγR analyte, 1:1 Langmuir fit.

Experiment [2] addresses T2, human FcγRIIa(R) (human, UniProt P12318 36-217).
T2 construct: also called FcgRIIaR; hFcgRIIa(R)
T2 chain: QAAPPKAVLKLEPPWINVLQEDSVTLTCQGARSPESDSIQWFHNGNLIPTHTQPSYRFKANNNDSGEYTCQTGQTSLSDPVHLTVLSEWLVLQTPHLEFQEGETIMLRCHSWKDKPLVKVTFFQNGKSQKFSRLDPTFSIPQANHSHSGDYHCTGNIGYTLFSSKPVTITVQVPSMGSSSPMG
The description is as above.

Experiment [3] addresses T3, human FcγRIa (human, UniProt P12314 16-292, limits assumed).
T3 construct: also called FcgRIa; hFcgRIa
The experiment is described as above.

The target of experiment [4] is T4, human FcγRIIb (human, UniProt P31994 43-217, limits assumed).
T4 construct: also called FcgRIIb; hFcgRIIb
T4 sequence: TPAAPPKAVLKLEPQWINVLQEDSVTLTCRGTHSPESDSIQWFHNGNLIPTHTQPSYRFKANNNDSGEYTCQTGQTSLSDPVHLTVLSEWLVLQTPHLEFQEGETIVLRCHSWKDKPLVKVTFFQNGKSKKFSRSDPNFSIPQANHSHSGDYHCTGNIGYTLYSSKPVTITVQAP
The experiment is described as above.

Experiment [5] deals with T5, human FcγRIa (human, UniProt P12314 16-292, limits assumed).
T5 construct: also called hFcgRIa; hFcgRI
Briefly: SPR, antibody captured by Protein L, human FcγR as analyte, pH 7.4, 25 C.

For experiment [6], the target named is T6, human FcRn (soluble human FcRn complexed with β2-microglobulin) (human, UniProt P61769 21-119, limits assumed).
T6 construct: also called hFcRn
Briefly: SPR, antibody captured by Protein L, human FcRn as analyte, pH 7.0, 25 C. (In general: In SPR one partner is held on a chip, and binding of the other changes the refractive index at the surface.)

For a further experiment, the target named is T7, mouse FcγRIIb (mouse, UniProt P08101 30-207, limits assumed).
T7 construct: bought; also called mFcgRIIb; mFcgR IIb
T7 sequence (looked up): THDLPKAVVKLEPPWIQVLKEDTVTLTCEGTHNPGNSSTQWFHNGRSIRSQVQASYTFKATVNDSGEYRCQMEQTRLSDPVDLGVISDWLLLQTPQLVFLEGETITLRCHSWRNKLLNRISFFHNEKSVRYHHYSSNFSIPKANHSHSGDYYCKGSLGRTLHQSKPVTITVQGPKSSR
In words: SPR, antibody captured by Protein L, mouse FcγR as analyte, pH 7.4, 25 C.

A further experiment addresses T8, mouse FcγRIV (mouse, UniProt A0A0B4J1G0 21-203).
T8 construct: bought; also called mFcgRIV; mFcgR IV; the vendor's purification tag not given
T8 sequence: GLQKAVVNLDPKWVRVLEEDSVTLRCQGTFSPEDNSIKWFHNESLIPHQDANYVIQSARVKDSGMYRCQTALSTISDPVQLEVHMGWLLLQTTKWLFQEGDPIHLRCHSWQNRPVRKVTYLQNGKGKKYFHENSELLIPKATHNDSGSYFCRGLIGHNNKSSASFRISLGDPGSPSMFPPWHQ
Described as above.

The next experiment addresses T9, mouse FcγRIII (mouse, UniProt P08508 31-215).
T9 construct: bought; also called mFcgRIII; mFcgR III
T9 sequence (looked up): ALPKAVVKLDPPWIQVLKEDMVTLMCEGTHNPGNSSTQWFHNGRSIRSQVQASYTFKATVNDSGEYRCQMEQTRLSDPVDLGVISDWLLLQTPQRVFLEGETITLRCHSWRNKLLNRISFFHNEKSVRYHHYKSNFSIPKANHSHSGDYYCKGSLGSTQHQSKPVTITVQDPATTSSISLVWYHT
The description is as above.

The target of experiment [7] is T6, human FcRn (soluble human FcRn …). Briefly: SPR, antibody captured by Protein L, human FcRn as analyte, pH 7.0, 25 C. The source holds these as a separate data set.
Experiment [8] addresses T5, human FcγRIa. In words: SPR, antibody captured by Protein L, human FcγR as analyte, pH 7.4, 25 C. This is another data set of the same source.
Experiment [9] addresses T10, human FcγRIIb (human, UniProt P31994 43-217, limits assumed).
T10 construct: also called hFcgRIIb; FcγIIB
T10 sequence: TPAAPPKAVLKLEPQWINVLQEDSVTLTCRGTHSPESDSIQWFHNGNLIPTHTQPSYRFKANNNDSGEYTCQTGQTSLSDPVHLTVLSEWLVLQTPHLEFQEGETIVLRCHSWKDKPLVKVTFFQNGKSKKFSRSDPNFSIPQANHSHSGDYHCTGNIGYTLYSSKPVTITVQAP
Described as above.

Experiment [10] deals with T11, human FcγRIIa(R) (human, UniProt P12318 36-217).
T11 construct: also called hFcgRIIa(R); FcγRIIa type R
T11 chain: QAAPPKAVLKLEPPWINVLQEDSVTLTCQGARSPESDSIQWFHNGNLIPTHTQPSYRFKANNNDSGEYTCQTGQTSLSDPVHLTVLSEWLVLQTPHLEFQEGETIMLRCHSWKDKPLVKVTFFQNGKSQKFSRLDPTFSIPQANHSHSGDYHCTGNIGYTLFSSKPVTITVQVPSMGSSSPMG
Described as above.

For experiment [11], the target named is T12, human FcγRIIa(H) (human, UniProt P12318 36-217).
T12 construct: also called hFcgRIIa(H); FcγRIIa type H
T12 sequence: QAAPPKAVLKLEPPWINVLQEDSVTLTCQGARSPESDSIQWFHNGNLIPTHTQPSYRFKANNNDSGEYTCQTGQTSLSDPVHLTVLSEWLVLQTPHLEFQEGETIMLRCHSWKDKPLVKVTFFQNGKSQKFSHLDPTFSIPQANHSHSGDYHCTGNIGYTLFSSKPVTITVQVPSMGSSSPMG
The experiment is described as above.

Experiment [12] has as its target T6, human FcRn (soluble human FcRn …). In words: SPR, antibody captured by Protein L, human FcRn as analyte, pH 7.0, 25 C. The source holds these as a separate data set.
Another experiment has as its target T13, mouse FcγRI (mouse, UniProt P26151 25-297).
T13 construct: bought; also called mFcgRI; mFcgR 1
T13 sequence (looked up): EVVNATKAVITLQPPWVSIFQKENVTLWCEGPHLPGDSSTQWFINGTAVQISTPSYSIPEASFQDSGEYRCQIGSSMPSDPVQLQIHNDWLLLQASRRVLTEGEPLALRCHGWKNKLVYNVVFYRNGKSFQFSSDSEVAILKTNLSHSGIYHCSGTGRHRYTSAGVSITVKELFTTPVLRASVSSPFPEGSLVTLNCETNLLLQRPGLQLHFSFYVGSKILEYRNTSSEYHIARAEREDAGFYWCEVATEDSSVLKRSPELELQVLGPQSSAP
In words: SPR, antibody captured by Protein L, mouse FcγR as analyte, pH 7.4, 25 C.

The target in experiment [13] is T5, human FcγRIa. In words: SPR, antibody captured by Protein L, human FcγR as analyte, pH 7.4, 25 C. The source holds these as a separate data set.
The target of experiment [14] is T10, human FcγRIIb. The experiment is described as above. This is another data set of the same source.
The target in experiment [15] is T6, human FcRn (soluble human FcRn …). In words: SPR, antibody captured by Protein L, human FcRn as analyte, pH 7.0, 25 C. The source holds these as a separate data set.

Read-outs that look alike come from different tables or passages of the source.

T6 sequence (chain, as listed by the source limits assumed, chain 1 of 2): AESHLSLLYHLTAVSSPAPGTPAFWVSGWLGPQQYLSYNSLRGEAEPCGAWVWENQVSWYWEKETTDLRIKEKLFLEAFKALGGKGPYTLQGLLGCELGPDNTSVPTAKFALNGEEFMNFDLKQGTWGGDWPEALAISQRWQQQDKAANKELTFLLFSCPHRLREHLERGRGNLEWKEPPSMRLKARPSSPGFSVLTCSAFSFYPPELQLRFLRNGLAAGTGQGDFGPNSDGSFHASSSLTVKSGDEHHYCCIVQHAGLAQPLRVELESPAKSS
T6 sequence (P61769 21-119 limits assumed, chain 2 of 2): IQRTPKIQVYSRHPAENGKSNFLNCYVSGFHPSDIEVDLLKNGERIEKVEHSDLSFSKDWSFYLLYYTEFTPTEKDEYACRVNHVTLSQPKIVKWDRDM

B1: IL6R-G1d/IL6R-L (antibody, human IgG1)
heavy: not shown
light: DIQMTQSPSSLSASVGDRVTITCRASQDISSYLNWYQQKPGKAPKLLIYYTSRLHSGVPSRFSGSGSGTDFTFTISSLQPEDIATYYCQQGNTLPYTFGQGTKVEIK
notes: anti-human IL-6 receptor, G1d constant region; copies: 2 + 2
As a reminder, the Kd is the free concentration of one partner at which half of the binding sites on the other are occupied at equilibrium, for simple one-to-one binding. For B1, the dissociation constant Kd with human FcγRIIa(H) [1] is 770 nM; with human FcγRIIa(R) [2], 1200 nM; with human FcγRIa [3], 0.34 nM; with human FcγRIIb [4], 5300 nM.

B2: VH3/L(WT)-IgG1-F140 (VH3-IgG1-F140 heavy chain, L(WT)-CK light chain) (antibody)
heavy: QVQLQESGPGLVKPSETLSLTCAVSGHSISHDHAWSWVRQPPGEGLEWIGFISYSGITNYNPSLQGRVTISRDNSKNTLYLQMNSLRAEDTAVYYCARSLARTTAMDYWGEGTLVTVSSASTKGPSVFPLAPSSKSTSGGTAALGCLVKDYFPEPVTVSWNSGALTSGVHTFPAVLQSSGLYSLSSVVTVPSSSLGTQTYICNVNHKPSNTKVDKKVEPKSCDKTHTCPPCPAPELLGGPKVFLFPPKPKDTLYISRTPEVTCVVVDVSHEDPEVKFNWYVDGVEVHNAKTKPREEQYNSTYRVVSVLTPLHQDWLNGKEYKCKVSNKALPAPIEKTISKAKGQPREPQVYTLPPSRDELTKNQVSLTCLVKGFYPSDIAVEWESNGQPENNYKTTPPVLDSDGSFFLYSKLTVDKSRWQQGNVFSCSVMHEALHYHYTQKSLSLSP
light: not shown
notes: S239K/M252Y/V308P/N434Y; copies: 2 + 2
Consider B2, for which the “BINDING AMOUNT (RU)” value in the experiment with human FcγRIa [5] is 335 RU; with mouse FcγRIIb, -1.8 RU; with mouse FcγRIV it was 108 RU; with mouse FcγRIII, 46.6 RU. In addition, the Kd in experiment [6] and in experiment [7] was 36 nM each time.

B3: VH3/L(WT)-IgG1-F763 (antibody, name in EU numbering)
heavy: QVQLQESGPGLVKPSETLSLTCAVSGHSISHDHAWSWVRQPPGEGLEWIGFISYSGITNYNPSLQGRVTISRDNSKNTLYLQMNSLRAEDTAVYYCARSLARTTAMDYWGEGTLVTVSSASTKGPSVFPLAPSSKSTSGGTAALGCLVKDYFPEPVTVSWNSGALTSGVHTFPAVLQSSGLYSLSSVVTVPSSSLGTQTYICNVNHKPSNTKVDKKVEPKSCDKTHTCPPCPAPELRGGPKVFLFPPKPKDTLYISRTPEVTCVVVDVSHEDPEVKFNWYVDGVEVHEAKTKPREEQYNSTYRVVSVLQVLHADWLNGKEYKCKVSNKALPAPIEKTISKAKGQPREPQVYTLPPSRDELTKNQVSLTCLVKGFYPSDIAVEWESNGQPENNYKTTPPVLDSDGSFFLYSKLTVDKSRWQQGNVFSCSVMHEALHYHYTQKSLSLSP
light: not shown
notes: copies: 2 + 2
Turning to B3, the “BINDING AMOUNT (RU)” value is -0.4 RU with human FcγRIa [8], -1 RU with human FcγRIIb [9], -1 RU with human FcγRIIa(R) [10] and -0.8 RU with human FcγRIIa(H) [11]. The Kd in experiment [12] was found to be 35 nM.

B4: antibody with VH3-IgG1-F157 heavy chain and L(WT)-CK light chain (antibody)
heavy: QVQLQESGPGLVKPSETLSLTCAVSGHSISHDHAWSWVRQPPGEGLEWIGFISYSGITNYNPSLQGRVTISRDNSKNTLYLQMNSLRAEDTAVYYCARSLARTTAMDYWGEGTLVTVSSASTKGPSVFPLAPSSKSTSGGTAALGCLVKDYFPEPVTVSWNSGALTSGVHTFPAVLQSSGLYSLSSVVTVPSSSLGTQTYICNVNHKPSNTKVDKKVEPKSCDKTHTCPPCPAPELLGGPSVFLFPPKPKDTLMISRTAEVTCVVVDVSHEDPEVKFNWYVDGVEVHNAKTKPREEQYNSTYRVVSVLTPLHQDWLNGKEYKCKVSNKALPAPIEKTISKAKGQPREPQVYTLPPSRDELTKNQVSLTCLVKGFYPSDIAVEWESNGQPENNYKTTPPVLDSDGSFFLYSKLTVDKSRWQQGNVFSCSVLHEALHYHYTQKSLSLSP
light: not shown
notes: P257A/V308P/M428L/N434Y; also called 1gG1-F157; copies: 2 + 2
In the case of B4, the Kd in experiment [6] was found to be 150 nM. For the same molecule, the “BINDING AMOUNT (RU)” value was 129 RU with mouse FcγRIIb, 243 RU with mouse FcγRIV, 315 RU with mouse FcγRI and 276 RU with mouse FcγRIII.

B5: VH3/L(WT)-IgG1-F699 (antibody, name in EU numbering)
heavy: QVQLQESGPGLVKPSETLSLTCAVSGHSISHDHAWSWVRQPPGEGLEWIGFISYSGITNYNPSLQGRVTISRDNSKNTLYLQMNSLRAEDTAVYYCARSLARTTAMDYWGEGTLVTVSSASTKGPSVFPLAPSSKSTSGGTAALGCLVKDYFPEPVTVSWNSGALTSGVHTFPAVLQSSGLYSLSSVVTVPSSSLGTQTYICNVNHKPSNTKVDKKVEPKSCDKTHTCPPCPAPELLGGPKVFLFPPKPKDTLYISRTPEVTCVVVDVSHEDPEVKFNWYVDGVEVHEAKTKPREEQYNSTYRVVSVLQVLHADWLNGKEYKCKVSNKALPAPIEKTISKAKGQPREPQVYTLPPSRDELTKNQVSLTCLVKGFYPSDIAVEWESNGQPENNYKTTPPVLDSDGSFFLYSKLTVDKSRWQQGNVFSCSVMHEALHYHYTQKSLSLSP
light: not shown
notes: copies: 2 + 2
Consider B5, for which the “BINDING AMOUNT (RU)” value with human FcγRIa [13] was 164 RU; with human FcγRIIb [14], -0.3 RU. The same molecule displayed a Kd in experiment [15] of 23 nM.
